Among the data in a protein production outcome set (Wang et al. 2014) are protein production values, retold here.

The data set can be described thus: label from the status in PepcDB records.

On to “MGFFSRDIQTMEDLLLHGLRDIYYAEQQITKALPKMIEQATNRDLSQGLTSHLEETQKQIERLDQVFKKLGQKPSGVNCPAIDGLIKEADETAGEIADKTVLDAAIVANAQAVEHYEIARYGTLIAWAEELGHDDIVRFLTTNLNEEKAANTKLNTVALRKGVNRKAAS”, for which the protein production entry is on record as “not failed”.

In the case of “MGFIGSGSIGGTIARLAVAAGHQVVLSNSRGPGSLADTVAELGPRASAATSEEAAAAGDIVVVTVPVTAFPDLPAAPLAGKTVIDTCNYGPERDGHIPELDGTSLTSSELLLRYVPGAMLVKGFNNIYFKHLLSLARPAGATDRSYLPIAGDLAPAKAAATEFIDSIGYGVVDAGLLADSWRQATGTPVWGTPYGPPSNEMGRPTGPGAIRAALATATR”, the protein production entry was “failed”.

Regarding “MGFIVFCLIAYFVISHLSNKKDVSGNKANSNCPYCNAAFYLTENGDFNCSNCGRLFKYRDGIVYRQDERLPIVVELACTLFTILCKADGVVTKDEVSITKELLEKNFGLEDKDMKMAIDILNKSKSKPYTKTIINDLNNIFNNYDFSKTDAEDYKELILRCAMIIAFCDDGEPSNNQNKILDDIVSIFNISATKYTNLLNYFRDNCIEKNKNDYYEILGVSEGASKEEIRAAFRKLSKLYHPDRYSSKDLPPEIIKEFEEKLAKIIEAYEALK”, the protein production result is “failed”.

“MGFLQRISLMITSLIILHTIPSTTSISITPDAPTMILIDSICVNTKNMYYCEQSIISKLGNPHAEIKTIADIAAFNAVYLITSAGNYIRDKFIPIAENPLVKNQLVLCLATYRAVQKLLEGAYLADRRGDYSDMRHYQSSVLGMLDNCKTDFDYMVRTNWGVRLMINISLLATRQLPAQ”: the protein production entry is on record as “failed”.

With “MGFPKLETERLQLRELTLLDAETMFHYFSKESVIRYFGMDSFENIEQAKTTIQTFKNRYEEGSVFRWGIEKKGTGQLIGTCGFHLINHHHKRAEIGYELDDTYWGQGYASEALQAILTYGFETLQLIRIAAVVYVENKASQKLLSKAGFQEEGLLRKHMIQNGVAHDTILYSLLKEEWKK”, the protein production entry is listed as “failed”.

For “MGGAVLAQPPGPTPTDGVPLRSSQPAVQVEPAPTTATAAPIERLFPKLTGRVVDTAQLLTPSAQVYLAQMLERLEQTTTDQVVVATVPSLGGHSIEEFGLQLGRHWGIGRKDKNNGVLLLVAKDDRKVRIEVGYGLEGRLNDIVAHFIIDGSIIPYFKDDLYSSGIIAGATSIVSVLSSTDRPMLVYRSVEKNWYQDIEWMWWFERLFYLVFVGVPLFGFLTQWRSGDDSPVVASGDSARRETRAERDTGSSSSAFDWFDSSSSSSSSSSDSFSGGGGSFGGGGASGSW”, the protein production entry is recorded as “failed”.

For “MGGCPVRKRRRNGSKEGNHHSTQPKRNKRNPIFQDSQDTEFSWSDNERSSSRINIPERASGPEGNLNQIVTEPDANFPQFLHEGLSKPVYVINWFMSFGPEIKLNTSQQGRNQAV”, the protein production result was “failed”.

As to “MGGDKIDLYKRFSILFCTIFLLLILQGTVAAESNYTVDYSTYLGDKVVDEARDVYVDDSGYIYVTGSTHVNGSKDVFVTKFNVTREVIYHTILTDTSGDDWGHRIVADGDGYAYVVGEINHDGLKVADAFISKIDPSGKEVKRVYIGGSGYDVAKGLAIDYEGNIYVSGYTISTVLNVSELGGGTARVPGTNPNATPLTDWTYHGGYDAFLARFDQDLNPVNLRYFGGSWDDYCQGIAIDYAGNIYITGYTYSDDFPVTFDAISGDKRGTTDIFLSRFTPDLNCDYSTYLGGSGPDFCYSIISRDSRIYLAGKTNSSDFPVTPNAYQKTRNGSSDGFIMVFNDYSVEYSTYLGGRGDDSINDITQDILGNLYLTGWTGSDNFPLTPGAYDSSLSGVDAFVMKFSIPKGVLYSSYLGGIEADQGYGVAVDRYQNIYVAGKTWSSNFTVTPDACKKNLTGLSDGFLTRFTPFIISNISVTPLNGTGPLTVTLRGNITNCGDSTGWYRLDLYINGYRTAGKWVEVGSLETEPFEFEYTLRNSRAYSVGVNNFPPATVRVFLGPLIIPENLRVTPSGGQEPLKVNVTADLVNYGDLPDSYTAELYIDGVLLDSRNVTVNASSRTTVSFNRTLAAGLYEITINDLEPELVYVMEGEKFYIENFTLTPQSGAAPLTVTVSAMITNIDSNPRSYTATIYVNGVPDHTKVLNIPGESTVPFSTSILLPDRGLYTISLNNNVSGTVRVLSEANFTLSNVTVSPVEGKSPLNVTVTAIVRNNGDLAGDFAVTLYLDDVAWETRTVSVPGKSSVLVSFKKELAFPGEYRLRLNSGTDVTIRVLEPDPTITGFNVTPVTGPAPLSVRASLNVTNPHDLVIGFTARLMVDGVVVQENIVSLSPGETREIAMGTLLTPGNHTVGINEFSKIVRVLRPASITLSDLRVTPSSGFSPLTITATATARNTGEVDGNYTAVLYINGLAVDEKNVTVGAGRSVQVAFNHTIENAGIYLAGIGSLTPLDVRVLSEPAISNLSATPLTGVSPHRIIVTALVSTTEEGSGNYTAGLYIDGVNVQNRTVRVTGPGSVLVSFTADISEPGEHQVTVNSLSPVTVRVLRPATFIVDSLTVSPSTGVIPFRVNASVRVTNIGDIAGNYTARLYIDGVNVQNRTVNVPAGGDVTVSFTYNITQRGNHTVWIDNPPGINVNALKPATLEIRSFSVTPGSAVGSVNANVSAEIENSGDLEGEFSIPFYLNGSLIRNETIRLGPGERGNINFQQYLSGPGVYTFSLGNLRNSTVYVNPARRKYSFTFRNTGKYTTTVTYYVTVYSSTGAKLGYRTFKFTLKPGRSYSATIGYYPYDARIVTTRKIYNPSRYTRTIKLSETFRADTLSATLNYSNTIRGYRYVYIKKTFRAVNMRITVT”, the protein production entry is given as “failed”.

As to “MGGEASPRSLQDWRHVHNTIIPAHVLSLDDVRERAGRNRLEVAYLDDVLVGCSTVRPPADAPTPDAPATATVIARVLAAHRGRGFGGEMYERGLKHARALGAQVIETVVLSSNPDGLRFALKHGFAETERYLLPGDTVPWIDLRLSV”, the protein production result is listed as “failed”.

For the sequence “MGGGEVKMMSLLEEMKGIYSKKGGKVKPFEKFEGELKEGYRFEYEKKLCEIDVAMFGLISGDLNPVHFDEDFASKTRFGGRVVHGMLTTSLVSAAVARLPGTVVLLEQSFRYTSPVRIGDVVRVEGVVSGVEKNRYTIDVKCYTGDKVVAEGVVKVLIW”, the protein production entry was “not failed”.

“MGGITITAVISNRDKVTFGEVADHYHSNKLIFGLKYFKNWVLERVAAWFPIPSWRAKFHKMRGVNLGKNVYVGYDVVFDRLHPEMITVGDYSEIGDRCILSAHSRGSLTTRQAYPRTIEPIKIGCGVSVNPGCIITQGVEIGDNSIIGIGSVVTRDISPNSLALGYPARVIKKLDGVGELQTSFNDT”: the protein production result is on record as “failed”.

Consider “MGGRIASLLLDELHASTTVAAGVCLGYPFHPLGKPAQLRTHHLIDLSAPCLIFQGERDAMGRQDEVEVYSMSSAVTLQWIPDGDHSFSPRKRSGRTEEQNLCLAVQHVHSFLDSV”, for which the protein production entry is “failed”.

Regarding “MGHHHHHHSHGIVPGSVVLMAGEPGVGKSTLLLEVASRWASMKEGDGTRTALYVTAEESAGQVRLRAERTAAVKDTLYLAAESNLDVVFGHVNQVKPSLLIVDS”, the protein production result is “failed”.

Regarding “MGHHHHHHSHGYLLKPEFMRRPDKSFDPFTEVIVDGIVANALRVKVISGQFLSDRKVGIYVEVDMFGLPVDTRRKYRTRTSQGNSFNPVWDEEPFDFPKVVLPTLASLRIAAFEEGGKFVGHRILPVSAIRSGYHYVCLRNEANQPLCLPALLIYTEASDYIPDDHQDYAEALINPIKHVSLMDQRARQLAALIG”, the protein production result was “failed”.

For the sequence “MGHHHHHHSHMACYIYQLPSWVLDDLCRNMDALSEWDWMEFASYVITDLTQLRKIKSMERVQGVSITRELLWWWGMRQATVQQLVDLLCRLELYRAAQIILNWKPAPEIRCPIPAFPDSVK”, the protein production result is given as “failed”.

As to “MGHHHHHHSHMADVEDGEETCALASHSGSSGSKSGGDKMFSLKKWNAVAMWSWDVECDTCAICRVQVMDACLRCQAENKQEDCVVVWGECNHSFHNCCMSLWVKQNNRCPLCQQDWVVQRIGK”, the protein production result is recorded as “failed”.

Regarding “MGHHHHHHSHMAGPSNVPAFLTKLWTLVSDPDTDALICWSPSGNSFHVFDQGQFAKEVLPKYFKHNNMASFVRQLNMYGFRKVVHIEQGGLVKPERDDTEFQHPCFLRGQEQLLENIKRKVTSVS”, the protein production result is “not failed”.

“MGHHHHHHSHMAILIAFMKQRRMGLNDFIQKIANNSYACKHPEVQSILKISQPQEPELMNANPSPPPSPSQQINLGPSSNPHAKPSDFHFL”: the protein production result is reported as “failed”.

For the sequence “MGHHHHHHSHMARPLVPSSQKALLLELKGLQEEPVEGFRVTLVDEGDLYNWEVAIFGPPNTYYEGGYFKARLKFPIDYPYSPPAFRFLTKMWHPNIYETGDVCISILHPPVDDPQSGELPSERWNPTQNVRTILLSVISLLNEPNTFSPANVDASVMYRKWKESKGKDREYTDIIRKQVLGTKVDAERDGVKVPTTLAEYCVKTKAPAPDEGSDLFYDDYYEDGEVEEEADSCFGDDEDDSGTEES”, the protein production result is recorded as “failed”.

Turning to “MGHHHHHHSHMATGEEVPRTIIVTTRSQYGLPEDAIVYCNFNQLYKIDPSTLQMWANILKRVPNSVLWLLRFPAVGEPNIQQYAQNMGLPQNRIIFSPVAPKEEHVRRGQLADVCLDTPLCNG”, the protein production entry is reported as “failed”.

As to “MGHHHHHHSHMATSSQYRQLLSDYGPPSLGYTQGTGNSQVPQSKYAELLAIIEELGKEIRPTYAGSKSAMERLKRGIIHARGLVRECLAETERNARS”, the protein production result is “not failed”.

Regarding “MGHHHHHHSHMDTPENVLQMLEAHMQSYKGNDPLGEWERYIQWVEENFPENKEYLITLLEHLMKEFLDKKKYHNDPRFISYCLKFAEYNSDLHQFFEFLYNHGIGTLSSPLYIAWAGHLEAQGELQHASAVLQRGIQNQAEPREFLQQQYRLFQTRLTETHLPAQAR”, the protein production entry is given as “failed”.

“MGHHHHHHSHMHGWTWSVPKFMKRMKVPDYKDKAVFGVPLIVHVQRTGQPLPQSIQQALRYLRSNCLDQVGLFRKSGVKSRIHALRQMNENFPENVNYEDQSAYDVADMVKQFFRDLPEPLFTNKLSETFLHIYQYVSKEQRLQAVQAAILLLADENREVLQTLLCFLNDVVNLVEENQMTPMNLAVCLAPSLFHLNLL”: the protein production entry is given as “failed”.

Consider “MGHHHHHHSHMKKDPTLQQAHDTMRFFRRGGSLRMLLDDDVTQPLNTVYRYAMQLMEVKEFAGAARLFQLLTIYDAWSFDYWFRLGECCQAQKHWGEAIYAYGRAAQIKIDAPQAPWAAAECYLACDNVCYAIKALKAVVRICGEVSEHQILRLRAEKMLQQLSDRS”, for which the protein production result is “failed”.

In the case of “MGHHHHHHSHMNSTECTLILTEGDSAKTLAVSGLGVVGRDKYGVFPLRGKILNVREASHKQIMENAEINNIIKIVGLQYKKNYEDEDSLKTLRYGKIMIMTDQDQDGSHIKGLLINFIHHNWPSLLRHRFLEEFITPIVKVSKNKQEMAFYSLPEFEEWKSSTPNHKKWKVKYYKGLGTSTSKEAKEYFADMKRHRIQFKYSGPEDDAAISLAFSKKQIDDRKEWLTNFMEDR”, the protein production result is “failed”.

For the sequence “MGHHHHHHSHMPLVKRNIDPRHLCHTALPRGIKNELECVTNISLANIIRQLSSLSKYAEDIFGELFNEAHSFSFRVNSLQERVDRLSVSVTQLDPKEEELSLQDITMRKAFRSSTIQDQQLFDRKTLPIPLQETYDVCEQPPPLNILT”, the protein production result was “not failed”.

On to “MGHHHHHHSHMQFFLPDATATHQFGVLLGQRLLASSTLLLEGDLGSGKTTLTQGIAQGLGIPDVVASPTFTLVCEYSEGRLPLYHFDLYRLEAPDVARLLPELYWEGVEFEPGLVVIEWPERLPYRPAAYWSLVLTPSLELEGRQLVLTPVNQDPTTVANLEVQLAAQFRARPATAES”, for which the protein production result is recorded as “not failed”.

For “MGHHHHHHSHMSNPIQAEVLKRVAEVFDQHVPFHNLLGLDIKRYDIDGVEVAINMKPELIGNIHQQILHGGVTATVLDVVGGLTAFAGLVASRDDWTIEELQQRLQTLGTIDMRVDYLRPGRGQIFTGTGSVIRAGNRVSVCRMELHNEQGTHIAFGTGTYMVG”, the protein production entry was “not failed”.
